{
  "source": "paper PMC6353898",
  "about": "(Scientific Reports, 2019)",
  "binders": {"B1": {"name": "FITC conjugated Pep11 (designed binder)", "peptide": "{FITC-Ahx}-WSGENGPGFYDYEA", "notes": "Pep11, FITC labelled; also called FITC-Pep11; source: synthetic peptide (solid phase, Fmoc chemistry, HPLC purified)"}},
  "target": "T1, EGFR on A431 and MDA MB 468 cells (human (endogenous in A431 and MDA MB …, UniProt P00533 25-1210))",
  "T1 construct": "also called Epidermal growth factor receptor; EGFR overexpressing cells; source: endogenous, overexpressed on A431 and MDA MB 468 cells",
  "assay": "flow cytometry on cells; A431, MDA MB 468 and HEK 293 cells; FITC labeled peptides 10 µM in HBSS, 37 °C, 15 minutes; washed, trypsinized; mean fluorescence intensity",
  "conditions": "one partner purified",
  "note": "Ends that are not written are not given here. * marks the point of attachment. FITC = O=C1OC2(c3ccc(O)cc3Oc3cc(O)ccc32)c2ccc(NC(=S)*)cc21; Ahx = NCCCCCC(=O)O",
  "data": [
    {"binder": "B1", "values": [
      {"measurement": "fold fluorescence against the other peptides", "value": 1.5, "unit": "fold"}
    ]}
  ]
}
